Like-named read-outs stand apart in the source and are kept apart here.

As usually defined, the EC50 is the concentration at which the effect is half-maximal.

The target of the assay is FGFR1/KLB (Homo sapiens, UniProt P11362+Q86Z14). In words: FGFR1/KLB functional assay (PathHunter). The assay is classed as cell-based. How it is done: The cells were cultured to 70-80% full in a T-75 flask. The medium was removed and washed with 5 mL of the pre-warmed PBS. PBS was removed, and 2 mL of AssayComplete cell detachment reagent was added, and then incubated in an incubator at 37° C. and 5% CO2 for 3 minutes, and the attached cells were detached. It was mixed with 6 mL of AssayComplete cell plating 0 reagent, and the mixture was transferred to a 15 mL tube, centrifuged at 1,000 rpm for 3 minutes, and then again released in 5 mL of cell plating reagent. The number of cells was counted, and the concentration was allowed to be 500,000 cells/mL. It was transferred to a reservoir, and 40 μL per well was dispensed into a white 96-well half-area cell culture plate using a multi-channel pipette (20,000 cells/well). Only 40 μL of cell plating reagent was dispensed into the blank well. The cells were incubated in an incubator at 37° C. and 5% CO2 for 24 hours to allow to be attached.
10 μL of each of rhFGF21 (5×) and test sample (5×) prepared by 4-fold serial dilution was dispensed in duplicate and cultured at room temperature for 4 hours. 10 μL of AssayComplete cell plating 0 reagent was added to the control and blank wells. After the culture was completed, the medium was removed, and 50 μL of AssayComplete cell plating 0 reagent was added. 30 μL of Detection reagent was dispensed and reacted in a state where light was blocked at room temperature for 1 hour, and then the luminescence was measured with a plate reader.
The luminescence of the sample in the plate was measured with a Synergy Neo2 instrument.
The Delta RLU (relative luminescence unit) (ΔRLU) was calculated as follows.
ΔRLU=RLUsample−RLUblank=Signal−background luminescence
In addition, the fold induction relative to the control group was calculated as follows.
The EC50 values were obtained based on fold induction values by each concentration using GraphPad Prism 8, as follows (curve-fitting of the log (agonist) vs. normalized response−variable slope equation).
In order to test the activity levels of the native FGF21 and the FGF21 analogue at the cellular level (in vitro), the FGFR1/KLB functional assay was performed in the same manner as in Test Example 2.

FGFR1/KLB, sequence (P11362 22-822): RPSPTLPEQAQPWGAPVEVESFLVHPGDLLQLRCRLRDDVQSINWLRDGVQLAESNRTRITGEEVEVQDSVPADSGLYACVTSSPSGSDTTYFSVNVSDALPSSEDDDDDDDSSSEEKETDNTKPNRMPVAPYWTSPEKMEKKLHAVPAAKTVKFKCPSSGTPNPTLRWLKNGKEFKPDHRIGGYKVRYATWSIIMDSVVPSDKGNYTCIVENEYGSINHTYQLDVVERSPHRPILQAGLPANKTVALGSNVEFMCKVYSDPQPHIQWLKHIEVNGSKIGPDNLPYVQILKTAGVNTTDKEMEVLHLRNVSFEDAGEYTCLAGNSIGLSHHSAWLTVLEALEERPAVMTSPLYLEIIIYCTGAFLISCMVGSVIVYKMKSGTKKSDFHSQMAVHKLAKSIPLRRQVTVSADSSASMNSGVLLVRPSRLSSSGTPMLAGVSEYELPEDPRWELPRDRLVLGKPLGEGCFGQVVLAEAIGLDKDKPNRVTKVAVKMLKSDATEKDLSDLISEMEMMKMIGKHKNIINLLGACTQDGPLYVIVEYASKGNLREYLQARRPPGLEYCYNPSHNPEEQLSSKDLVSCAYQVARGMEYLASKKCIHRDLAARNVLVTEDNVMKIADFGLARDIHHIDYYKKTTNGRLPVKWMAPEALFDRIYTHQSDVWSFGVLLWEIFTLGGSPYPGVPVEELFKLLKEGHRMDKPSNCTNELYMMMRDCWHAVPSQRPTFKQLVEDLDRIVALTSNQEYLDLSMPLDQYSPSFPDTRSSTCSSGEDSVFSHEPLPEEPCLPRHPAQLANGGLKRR
FGFR1/KLB, sequence (Q86Z14 whole entry): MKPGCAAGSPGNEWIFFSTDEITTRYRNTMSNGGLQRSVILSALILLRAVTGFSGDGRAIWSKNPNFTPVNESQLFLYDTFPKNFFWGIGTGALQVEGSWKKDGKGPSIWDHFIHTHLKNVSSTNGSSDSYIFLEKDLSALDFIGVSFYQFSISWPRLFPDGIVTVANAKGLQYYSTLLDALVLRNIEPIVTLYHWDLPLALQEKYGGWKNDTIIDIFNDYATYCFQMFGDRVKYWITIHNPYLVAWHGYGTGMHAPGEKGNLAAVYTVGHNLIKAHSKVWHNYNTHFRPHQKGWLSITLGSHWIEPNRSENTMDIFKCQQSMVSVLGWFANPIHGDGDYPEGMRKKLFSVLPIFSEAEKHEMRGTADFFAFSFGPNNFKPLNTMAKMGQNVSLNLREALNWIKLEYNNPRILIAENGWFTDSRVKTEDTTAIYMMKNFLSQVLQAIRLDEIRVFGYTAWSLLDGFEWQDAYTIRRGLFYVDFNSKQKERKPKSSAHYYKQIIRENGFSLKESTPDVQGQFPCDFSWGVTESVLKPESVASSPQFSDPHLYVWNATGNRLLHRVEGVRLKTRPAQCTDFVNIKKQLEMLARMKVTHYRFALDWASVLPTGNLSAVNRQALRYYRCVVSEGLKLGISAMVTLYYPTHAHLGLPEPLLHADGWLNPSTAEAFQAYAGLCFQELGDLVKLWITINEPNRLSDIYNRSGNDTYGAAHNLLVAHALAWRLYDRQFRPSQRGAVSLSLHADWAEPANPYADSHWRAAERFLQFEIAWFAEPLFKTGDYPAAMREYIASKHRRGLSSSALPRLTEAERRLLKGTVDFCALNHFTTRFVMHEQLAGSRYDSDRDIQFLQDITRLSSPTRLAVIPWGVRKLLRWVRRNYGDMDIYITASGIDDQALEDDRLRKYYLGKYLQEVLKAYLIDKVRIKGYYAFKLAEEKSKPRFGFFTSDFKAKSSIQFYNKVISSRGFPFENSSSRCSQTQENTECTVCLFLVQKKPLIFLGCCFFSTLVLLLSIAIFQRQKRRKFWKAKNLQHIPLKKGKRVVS

B1: rhFGF21: native FGF21, SEQ ID NO: 17 (protein)
chain: HPIPDSSPLLQFGGQVRQRYLYTDDAQQTEAHLEIREDGTVGGAADQSPESLLQLKALKPGVIQILGVKTSRFLCQRPDGALYGSLHFDPEACSFRELLLEDGYNVYQSEAHGLPLHLPGNKSPHRDPAPRGPARFLPLPGLPPALPEPPGILAPQPPDVGSSDPLSMVGPSQGRSPSYAS
modifications: FGF21 native
For the molecule B1, the 50% effective concentration (EC50) amounted to 0.82 nM (Test Example 2, mean of 2 runs, read-out: EC50, Mean); 0.75 nM (Test Example 2, run 1, read-out: EC50, 1); 0.88 nM (Test Example 2, run 2, read-out: EC50, 2); 1.17 ± 0.56 nM (Test Example 9 screening, read-out: EC50).

The record behind these values is patent US20240066137A1, “NOVEL PROTEIN CONJUGATE, AND USE THEREOF FOR PREVENTING OR TREATING NONALCOHOLIC STEATOHEPATITIS, OBESITY AND DIABETES” (ONEGENE BIOTECHNOLOGY INC., priority 2020, published 2024).
